B1: Human wild-type adenosine deaminase (ADA) [human] / A2AR-Nluc-spacer (human adenosine receptor fused to NanoLuc on the N-terminal end, with spacer) [human] (parent)
chain 1: MAQTPAFDKPKVELHVHLDGSIKPETILYYGRRRGIALPANTAEGLLNVIGMDKPLTLPDFLAKFDYYMPAIAGCREAIKRIAYEFVEMKAKEGVVYVEVRYSPHLLANSKVEPIPWNQAEGDLTPDEVVALVGQGLQEGERDFGVKARSILCCMRHQPNWSPKVVELCKKYQQQTVVAIDLAGDETIPGSSLLPGHVQAYQEAVKSGIHRTVHAGEVGSAEVVKEAVDILKTERLGHGYHTLEDQALYNRLRQENMHFEICPWSSYLTGAWKPDTEHAVIRLKNDQANYSLNTDDPLIFKSTLDTDYQMTKRDMGFTEEEFKRLNINAAKSSFLPEDEKRELLDLLYKAYGMPPSASAGQNL
chain 2: MPIMGSSVYITVELAIAVLAILGNVLVCWAVWLNSNLQNVTNYFVVSLAAADIAVGVLAIPFAITISTGFCAACHGCLFIACFVLVLTQSSIFSLLAIAIDRYIAIRIPLRYNGLVTGTRAKGIIAICWVLSFAIGLTPMLGWNNCGQPKEGKNHSQGCGEGQVACLFEDVVPMNYMVYFNFFACVLVPLLLMLGVYLRIFLAARRQLKQMESQPLPGERARSTLQKEVHAAKSLAIIVGLFALCWLPLHIINCFTFFCPDCSHAPLWLMYLAIVLSHTNSVVNPFIYAYRIREFRQTFRKIIRSHVLRQQEPFKAAGTSARVLAAHGSDGEQVSLRLNGHPPGVWANGSAPHPERRPNGYALGLVSGGSAQESQGNTGLPDVELLSHELKGVCPEPPGLDDPLAQDGAGVS

Variants of: B1
Assay: NanoBRET between mixed cells (A2AR-Nluc-spacer cells + CD26-YFP cells bridged by ADA)
Settings: ADA at 1 μg/ml, 10 min incubation in HBSS without shaking, HEK-293T cells, untreated (0) control est. 4.6 mBU, parent: 35, read off a plot

Variant | response [mBU]
chain 1 L62A | 6.7
chain 1 L58A | 7.3

From article PMC5818423
